This note sets out measurements from the RNAGym collection of RNA variant scans (doi:10.7554/elife.90254).

B1: LINE1-mini (parent)
chain: GGCAGAGCUCAACACAGCGUGGCAAAGUGGCUGUGGCUAGACUGCC

The variants in the series derive from B1. Description: self-cleavage, relative activity (ratio to wild type); higher = more cleavage; in vitro, sequencing; the parent is a self-cleaving ribozyme.
Consider C18U A25G, for which the self-cleavage worked out at 0.26. Under C18U A25C stands 0.86.

Take C18U A25U: the self-cleavage came out at 0.7.

As for G19A A24C, the self-cleavage worked out at 0.61. In the case of G19A A24G, the self-cleavage came to 1.45. In the case of G19A A24U, the self-cleavage was determined as 2.05. For the variant C18G G27U, the self-cleavage was 0.61. With C18G G27A, the self-cleavage was determined as 1.04.

As for C18G G27C, the self-cleavage is 0.38. Turning to C18G G44C, the self-cleavage was found to be 0.1.

For C18G G44U, the self-cleavage is 0.05. C18G G44A: the self-cleavage turned out to be 0.07. For C18G C31U, the self-cleavage turned out to be 0.02.

As for C18G C31A, the self-cleavage was found to be 0.06. Regarding C18G C31G, the self-cleavage was 0.04. For G19A U20C, the self-cleavage came to 0.46. Take G19A U20A: the self-cleavage is 0.51. Turning to G19A G40U, the self-cleavage was 0.16. Next, G19A G40A: 0.11; G19A G40C: 0.07; C18G: 0.52. Regarding C18A, the self-cleavage is 0.85. Take C18U: the self-cleavage came to 1.21. Under G19A G22U stands 0.99; under G19A G22C, 0.71. Consider G19A G22A, for which the self-cleavage is 0.62.

In the case of C18U C31G, the self-cleavage worked out at 0.05. Turning to C18U C31U, the self-cleavage stood at 0.04. Under C18U C31A stands 0.08.

Turning to G19A C46A, the self-cleavage turned out to be 0.81.

As to G19A C46U, the self-cleavage was determined as 1.74.

Consider G19A C46G, for which the self-cleavage came to 1.53. Under G19A G27A stands 1.19; under G19A G27U, 0.93. On to G19A G27C, for which the self-cleavage was determined as 0.53. As to C18U A41U, the self-cleavage turned out to be 0.92. On to C18U A41C, for which the self-cleavage was found to be 0.05.

Turning to C18U A41G, the self-cleavage amounted to 0.26.

Consider C18A G19U, for which the self-cleavage was 0.31. For the variant C18A G19C, the self-cleavage turned out to be 1.27.

C18A G19A: the self-cleavage turned out to be 1.05.

Regarding G19A G36C, the self-cleavage amounted to 0.16. Next, G19A G36U: 0.09; G19A G36A: 0.18; C18G A25C: 0.2. Take C18G A25U: the self-cleavage is 0.51.

Consider C18G A25G, for which the self-cleavage was 0.13.

Regarding G17U U28G, the self-cleavage turned out to be 0.1. As to G17U U28C, the self-cleavage worked out at 1.16. For the variant C18A G29C, the self-cleavage amounted to 0.83. For C18A G29U, the self-cleavage turned out to be 1.07.

As for C18A G29A, the self-cleavage worked out at 0.69. As for C18U G21C, the self-cleavage turned out to be 1.13. Next, C18U G21A: 2.7; C18U G21U: 2.05. Regarding C18U C37A, the self-cleavage was 0.09. As to C18U C37U, the self-cleavage is 0.07. Under C18U C37G stands 0.04; under C18A G35A, 0.05. C18A G35U: the self-cleavage is 0.07. As for C18A G35C, the self-cleavage came to 0.05.

C18A G40U: the self-cleavage came to 0.06. Under C18A G40A stands 0.05.

Take C18A G40C: the self-cleavage worked out at 0.03. In the case of C18U G36U, the self-cleavage is 0.06.

With C18U G36C, the self-cleavage stood at 0.06. Regarding C18U G36A, the self-cleavage came out at 0.15.

In the case of C18G C45G, the self-cleavage worked out at 0.09.

Consider C18G C45U, for which the self-cleavage amounted to 0.13. As to C18G C45A, the self-cleavage stood at 0.26.

For C18A C46G, the self-cleavage is 0.47. On to C18A C46U, for which the self-cleavage is 0.65.

C18A C46A: the self-cleavage came to 0.95. Regarding C18U C42G, the self-cleavage stood at 0.05.

Regarding C18U C42A, the self-cleavage was 0.09. On to C18U C42U, for which the self-cleavage was 0.17. For the variant C18A G27U, the self-cleavage turned out to be 1.04.

Regarding C18A G27A, the self-cleavage worked out at 1.47.

On to C18A G27C, for which the self-cleavage came out at 0.62. For the variant C18G G30C, the self-cleavage is 1. Under C18G G30U stands 0.62; under C18G G30A, 0.92. Next, C18U U20G: 0.41. Next, C18U U20A: 0.61; C18U U20C: 0.98. As for G17U U38G, the self-cleavage is 0.08.

On to G17U U38C, for which the self-cleavage came to 0.04. Regarding G17U U38A, the self-cleavage was 0.17. Next, C18A A25C: 0.36; C18A A25U: 1.21; C18A A25G: 0.19. With G17U U34C, the self-cleavage was 0.05.

In the case of G17U U34G, the self-cleavage was found to be 0.04. G17U U34A: the self-cleavage came out at 0.05. As to C18A U28A, the self-cleavage turned out to be 0.7. Consider C18A U28G, for which the self-cleavage was 0.5. Under C18A U28C stands 0.49; under G19A G35C, 0.21; under G19A G35U, 0.14. Turning to G19A G35A, the self-cleavage worked out at 0.18.

On to G19A G33A, for which the self-cleavage stood at 0.11. Regarding G19A G33U, the self-cleavage was 0.15. For G19A G33C, the self-cleavage amounted to 0.05. As for C18U G29C, the self-cleavage amounted to 0.86.

With C18U G29U, the self-cleavage is 1.87. Turning to C18U G29A, the self-cleavage was 1.77.

C18A C45G: the self-cleavage turned out to be 0.14. Next, C18A C45U: 0.58. Next, C18A C45A: 0.24; C18U A26G: 0.65.

With C18U A26U, the self-cleavage came to 1.72. Under C18U A26C stands 1.39. In the case of C18U G40A, the self-cleavage was determined as 0.1. As to C18U G40C, the self-cleavage is 0.04.

Consider C18U G40U, for which the self-cleavage was 0.12.

Regarding C18U G35U, the self-cleavage is 0.08. As to C18U G35A, the self-cleavage came out at 0.1. For C18U G35C, the self-cleavage was determined as 0.03. With G19A, the self-cleavage worked out at 1.5. Next, C18G G29U: 0.96; C18G G29C: 0.49; C18G G29A: 1.38. As to C18A G30A, the self-cleavage amounted to 1.63. For the variant C18A G30C, the self-cleavage was 1.99. Under C18A G30U stands 1.55; under C18A A26U, 0.69.

In the case of C18A A26G, the self-cleavage is 0.57. Next, C18A A26C: 2.92; C18U G33A: 0.09; C18U G33U: 0.05. As for C18U G33C, the self-cleavage stood at 0.04. As to G19A C37U, the self-cleavage was determined as 0.05.

With G19A C37A, the self-cleavage stood at 0.07. Next, G19A C37G: 0.03. Under C18U A39G stands 0.08; under C18U A39U, 0.78. Consider C18U A39C, for which the self-cleavage was determined as 0.16. For the variant C18A A24G, the self-cleavage was 0.56. Under C18A A24U stands 0.67. As to C18A A24C, the self-cleavage is 0.18. With C18G U38G, the self-cleavage came out at 0.02.

As to C18G U38C, the self-cleavage was found to be 0.16. Under C18G U38A stands 0.38; under C18A G22U, 1.74; under C18A G22C, 0.92. Regarding C18A G22A, the self-cleavage turned out to be 1.07. With C18U U38G, the self-cleavage worked out at 0.01. Take C18U U38C: the self-cleavage turned out to be 0.27.

Consider C18U U38A, for which the self-cleavage came to 0.75. Under C18U U32C stands 0.16; under C18U U32G, 0.09; under C18U U32A, 0.04. As for C18U G22A, the self-cleavage was found to be 1.76. As for C18U G22C, the self-cleavage came to 1.47. For the variant C18U G22U, the self-cleavage turned out to be 1.21. Turning to G19A A26U, the self-cleavage was 1.89.

For the variant G19A A26C, the self-cleavage is 0.52. For the variant G19A A26G, the self-cleavage is 0.98. As to C18A A41G, the self-cleavage came to 0.13. On to C18A A41U, for which the self-cleavage stood at 0.34. Next, C18A A41C: 0.05. Consider C18U A24C, for which the self-cleavage worked out at 0.39. Consider C18U A24U, for which the self-cleavage is 0.97. Under C18U A24G stands 1.01; under G19A A25U, 1.66.

G19A A25G: the self-cleavage came out at 0.58. In the case of G19A A25C, the self-cleavage amounted to 1.21.
